Assay results from US20190119318A1.
Several values for one entry are separate records, joined by “and”; a condition that tells them apart may be missing. Equal values may be shown once.

Tests used:
[1] = target: human polyclonal IgG (Gammanorm) (human); assay: column DBC; base A42; ligand 6.72 mg/ml
[2] = target: human polyclonal IgG (Gammanorm) (human); assay: column DBC; base A62a; ligand 9.7 mg/ml
[3] = target: human polyclonal IgG (Gammanorm) (human); assay: column DBC; base A40; ligand 6.1 mg/ml
[4] = target: human polyclonal IgG (Gammanorm) (human); assay: SPR; after 100 CIP cycles 0.5 M NaOH
[5] = target: human polyclonal IgG (Gammanorm) (human); assay: column DBC; base C1; ligand […]
[6] = target: human polyclonal IgG (Gammanorm) (human); assay: column DBC; base A63a; ligand 6.6 mg/ml
[7] = target: human polyclonal IgG (Gammanorm) (human); assay: column DBC; base A40; ligand 13.2 mg/ml
[8] = target: human polyclonal IgG (Gammanorm) (human); assay: column DBC; base A28; ligand 7.9 mg/ml
[9] = target: human polyclonal IgG (Gammanorm) (human); assay: column DBC; ligand 12 mg/ml; before incubation in 1 M NaOH
[10] = target: human polyclonal IgG (Gammanorm) (human); assay: SPR; after 200 CIP cycles 0.5 M NaOH
[11] = target: human polyclonal IgG (Gammanorm) (human); assay: column DBC; ligand 16 mg/ml; before incubation in 1 M NaOH
[12] = target: human polyclonal IgG (Gammanorm) (human); assay: column DBC; base A38; ligand 11.3 mg/ml
[13] = target: human polyclonal IgG (Gammanorm) (human); assay: column DBC; base A28; ligand 11.9 mg/ml
[14] = target: human polyclonal IgG (Gammanorm) (human); assay: column DBC; base H40; ligand 9.1 mg/ml
[15] = target: human polyclonal IgG (Gammanorm) (human); assay: column DBC; base A62a; ligand 7.5 mg/ml
[16] = target: human polyclonal IgG (Gammanorm) (human); assay: column DBC; base A41; ligand 13.0 mg/ml
[17] = target: human polyclonal IgG (Gammanorm) (human); assay: SPR; after 300 CIP cycles 0.5 M NaOH
[18] = target: human polyclonal IgG (Gammanorm) (human); assay: column DBC; base A62a; ligand 14.8 mg/ml
[19] = target: human polyclonal IgG (Gammanorm) (human); assay: column DBC; base A65a; ligand 6.1 mg/ml
[20] = target: human polyclonal IgG (Gammanorm) (human); assay: column DBC; base A33; ligand 9.4 mg/ml
[21] = target: human polyclonal IgG (Gammanorm) (human); assay: column DBC; base C4; ligand 10.1 mg/ml
[22] = target: human polyclonal IgG (Gammanorm) (human); assay: column DBC; base A65a; ligand 6.6 mg/ml
[23] = target: human polyclonal IgG (Gammanorm) (human); assay: column DBC; base A38; ligand 7.5 mg/ml
[24] = target: human polyclonal IgG (Gammanorm) (human); assay: column DBC; base A40; ligand 11.0 mg/ml
[25] = target: human polyclonal IgG (Gammanorm) (human); assay: column DBC; base A65a; ligand 13.6 mg/ml
[26] = target: human polyclonal IgG (Gammanorm) (human); assay: column DBC; base C3; ligand 9.0 mg/ml
[27] = target: human polyclonal IgG (Gammanorm) (human); assay: column DBC; base A39; ligand 10.5 mg/ml
[28] = target: human polyclonal IgG (Gammanorm) (human); assay: SPR; vs reference Zvar4; 0.5 M NaOH
[29] = target: human polyclonal IgG (Gammanorm) (human); assay: SPR; vs reference Zvar4; 1 M NaOH
[30] = target: human polyclonal IgG (Gammanorm) (human); assay: SPR; after 100 CIP cycles 1 M NaOH
[31] = target: human polyclonal IgG (Gammanorm) (human); assay: column DBC; base C3; ligand […]; details: ligand content 5.9 mg/ml
[32] = target: human polyclonal IgG (Gammanorm) (human); assay: column DBC; base I1; ligand 6.1 mg/ml
[33] = target: human polyclonal IgG (Gammanorm) (human); assay: column DBC; base A28; ligand 15.8 mg/ml
[34] = target: human polyclonal IgG (Gammanorm) (human); assay: column DBC; base I1; ligand 11.2 mg/ml
[35] = target: human polyclonal IgG (Gammanorm) (human); assay: column DBC; base A20; ligand 10.6 mg/ml
[36] = target: human polyclonal IgG (Gammanorm) (human); assay: column DBC; base A18; ligand 13.4 mg/ml
[37] = target: human polyclonal IgG (Gammanorm) (human); assay: column DBC; base A33; ligand 7.3 mg/ml
[38] = target: human polyclonal IgG (Gammanorm) (human); assay: column DBC; base A65b; ligand 8.8 mg/ml
[39] = target: human polyclonal IgG (Gammanorm) (human); assay: column DBC; base A20; ligand […]
[40] = target: human polyclonal IgG (Gammanorm) (human); assay: column DBC; ligand 20 mg/ml; before incubation in 1 M NaOH

Substance: Zvar(Q9A,N11E,Q40V,A42K,N43A,L44I)4 (designed binder)
- Qb10% 2.4 min [1]: 33.6 mg/mL
- Qb10% 6 min [1]: 50 mg/mL
- Qb10% 2.4 min [2]: 48 mg/mL
- Qb10% 6 min [2]: 60 mg/mL
- Qb10% 2.4 min [3]: 49 mg/mL
- Qb10% 6 min [3]: 59 mg/mL
- remaining capacity 100 cycles [4]: 90%
- Qb10% 2.4 min [5]: 38 mg/mL
- Qb10% 6 min [5]: 47 mg/mL
- Qb10% 2.4 min [6]: 40 mg/mL
- Qb10% 6 min [6]: 44 mg/mL
- Qb10% 2.4 min [7]: 57 mg/mL
- Qb10% 6 min [7]: 71 mg/mL
- Qb10% 2.4 min [8]: 42.4 mg/mL and 42 mg/mL
- Qb10% 6 min [8]: 58.2 mg/mL and 58 mg/mL
- Qb10%, 6 min, before incubation [9]: 78 mg/mL
- remaining capacity 200 cycles [10]: 74%
- Qb10%, 6 min, before incubation [11]: 73 mg/mL
- Qb10% 2.4 min [12]: 48 mg/mL
- Qb10% 6 min [12]: 73 mg/mL
- Qb10% 2.4 min [13]: 39.9 mg/mL and 40 mg/mL
- Qb10% 6 min [13]: 63.8 mg/mL and 64 mg/mL
- Qb10% 2.4 min [14]: 52 mg/mL
- Qb10% 6 min [14]: 67 mg/mL
- Qb10% 2.4 min [15]: 47 mg/mL
- Qb10% 6 min [15]: 56 mg/mL
- Qb10% 2.4 min [16]: 35 mg/mL
- Qb10% 6 min [16]: 62.2 mg/mL
- remaining capacity 300 cycles [17]: 57%
- Qb10% 2.4 min [18]: 55 mg/mL
- Qb10% 6 min [18]: 62 mg/mL
- Qb10% 2.4 min [19]: 40 mg/mL
- Qb10% 6 min [19]: 44 mg/mL
- Qb10% 2.4 min [20]: 51 mg/mL
- Qb10% 6 min [20]: 58 mg/mL
- Qb10% 2.4 min [21]: 55 mg/mL
- Qb10% 6 min [21]: 63 mg/mL
- Qb10% 2.4 min [22]: 42 mg/mL
- Qb10% 6 min [22]: 47 mg/mL
- Qb10% 2.4 min [23]: 44 mg/mL
- Qb10% 6 min [23]: 58 mg/mL
- Qb10% 2.4 min [24]: 55 mg/mL
- Qb10% 6 min [24]: 74 mg/mL
- Qb10% 2.4 min [25]: 52 mg/mL
- Qb10% 6 min [25]: 61 mg/mL
- Qb10% 2.4 min [26]: 49 mg/mL
- Qb10% 6 min [26]: 62 mg/mL
- Qb10% 2.4 min [27]: 44 mg/mL
- Qb10% 6 min [27]: 65 mg/mL
- capacity relative to ref. 100 cycles [28]: 1.34
- capacity relative to ref. 200 cycles [28]: 2.06
- capacity relative to ref. 300 cycles [28]: 3.56
- capacity relative to ref. 100 cycles [29]: 2.07
- remaining capacity 100 cycles [30]: 56%
- Qb10% 2.4 min [31]: 44 mg/mL
- Qb10% 6 min [31]: 52 mg/mL
- Qb10% 2.4 min [32]: 45 mg/mL
- Qb10% 6 min [32]: 51 mg/mL
- Qb10% 2.4 min [33]: 37 mg/mL
- Qb10% 6 min [33]: 67 mg/mL
- Qb10% 2.4 min [34]: 57 mg/mL
- Qb10% 6 min [34]: 68 mg/mL
- Qb10% 2.4 min [35]: 50.7 mg/mL and 51 mg/mL
- Qb10% 6 min [35]: 70.1 mg/mL and 70 mg/mL
- Qb10% 6 min [36]: 63 mg/mL
- Qb10% 2.4 min [37]: 49 mg/mL
- Qb10% 6 min [37]: 56 mg/mL
- Qb10% 2.4 min [38]: 49 mg/mL
- Qb10% 6 min [38]: 56 mg/mL
- Qb10% 2.4 min [39]: 49 mg/mL
- Qb10% 6 min [39]: 67 mg/mL
- Qb10%, 6 min, before incubation [40]: 73 mg/mL
